Consider 20 molecules from patent publication US20190144550A1.

Where a chain is given by its changes, count along the chain named.

The chains are these.
B1: 42G9 (antibody, V domains shown)
VH: QVTLKESGPVLLKPTETLTLTCTVSGFSLSNPRMGVSWIRQPPGKALEWFAHIFSTDEKSLKLSLRSRLTLSKDTSKSQVVLTMTNMAPVDSATYYCARDSSNYEGYFDFWGQGTLVTVSS
VL: EVVLTQSPATLSVSPGERATLSCRASQSVRSNLAWYQQKSGQAPRLLIYGSTIRATGVPARFSGSGSGTEFTLTISSLQSEDFAVYYCQQYSDWPFTFGPGTKVDIK
B2: 19A9 (antibody, V domains shown)
VH: B1 VH with K5E, L12V, P32A, L47P, K62R, A88D, S92T, F110Y
VL: EVVMTQSPATLSVSPGERATLSCRASQSVNRNLAWYQQKPGQAPRLLIFGTSTRATGIPARFSGSGSGTEFTLTIDSLQSEHSGLYYCQQYNDWPFTFGPGTKVDIK
B3: 21E7 (antibody, V domains shown)
VH: B1 VH with K5E, L12V, P32A, L47P, K62R, A88D, S92T, F110Y
VL: B2 VL with E1D, M4L, R31S, K39N, T51S, R61S, D76N, G84A, L85V
B4: 49B11 (antibody, V domains shown)
VH: B1 VH with L12V, P32V, T56S, L61I, K62R, L63R, A88D, S92T, F110Y
VL: EMEVTQSPATLSVSPGERATLSCRASQNIGSDLAWYQQQSGQAPRLLISGASTRATGVPTRFSGSGSGTDFTLTITSLQSEDFAVYYCQQYNDWPFTFGPGTKVDIK
B5: 12H6 (antibody, V domains shown)
VH: B1 VH with L12V, P32A, F50L, L61I, K62R, L63R, A88D, S92T, F110Y
VL: EVVMTQSPATLSVSPGERATLSCRASQGVSSNFAWYQQRPGQSPRLLLYGASTRATGVPGRFSGSGSGTENILTISSLQSEDFAIYFCQQYKDWPFTFGPGSKVDIK
B6: 14C11 (antibody, V domains shown)
VH: B1 VH with L12V, S30N, P32A, L61F, K62R, L63T, A88D, S92T, F110Y, T115I
VL: EIVMTQSPATLSVSPGERATLSCRASQSVSNNLAWYQQKPGQAPRLLIYGASTRATGVPARFSGSDSGTEFSLTISSLQSEDFAVYFCQQYKDWPFTFGPGTKVEIK
B7: 46E10 (antibody, V domains shown)
VH: B1 VH with L12V, P32A, F50L, L61I, K62R, L63R, T83I, A88D, S92T, F110Y
VL: B5 VL with A9P, T10N, G28S, S30T, I85V
B8: 32A10 (antibody, V domains shown)
VH: B1 VH with L12V, P32A, F50L, L61I, K62R, L63R, A88D, S92T, Y96F, F110Y
VL: B5 VL with A19V, G28S, S43A, S52T, V58L
B9: 20B9 (antibody, V domains shown)
VH: QVTLKESGPVLVKPTETLTLTCTVSGFSLSNARMGVSWIRQPPGKALEWLGHIFSTDEKSYSTSLRGRITISKDTSRGLVVLTLTNMDPVDTATYYCARDSSNYEGYFDFWGPGFLVTVSS
VL: EIVMTQSPATLSVSPGERATLSCRVSQSIGANLAWYQQKFGQAPRLLIYGASTRATGIPVRFSGGGSGTEFTLTISSLQSEDFAIYSCQQYIYWPFTFGPGTTVDIK
B10: 20G5 (antibody, V domains shown)
VH: EVQLVESGGDLVKPGGSLRLSCAASGFTFTNAWMSWVRQAPGKGLEWVGRIKSKIDGGTTDYAAPVKGRFIISRDDSKNTLSLQMNSLKTEDTAMYYCTTAPGGPFDYWGQGSLVTVSS
VL: DIVLTQSPLSLPVTPGEPASISCRSSQSLLYSDRRNYLDWFLQKPGQSPHLLIYLGSYRASGVPDRFSGSGSGTDFTLKISRVEAEDVGVYYCMQALQIPITFGQGTRLEIK
B11: 26B9 (antibody, V domains shown)
VH: EVQLVESWGVLVKPGGSLRLSCAASGFIFNNAWMSWVRQAPGKGLEWIGRIKSKSDGGTTDYAAPVKDRFTISRDDSKDTLYLQMNGLKTEDTAVYFCTTAPGGPFDYWGQGTLVTVSS
VL: B10 VL with Y31H, S32R, R34G, R35F, H50Q, G56A, Y58S, G71D, I99T
B12: 11F10 (antibody, V domains shown)
VH: QVTLKESGPVLVKPIETLTLTCTVCGFSLSNPRMGVSWIRQPPGKALEWLGHIFSSDEKSYRLFLRSRLSISKDTSKSQVVLTMTNMDPVDTATYYCARDSSDYEGYFDYWGQGTLVTVSS
VL: EIVMTQSPATLSVSPGERTTLSCRASQSVGSNLAWYQQKPGQAPRLLIYGASTRASGVPARFSGSGSGTEFTLTISSLQSEDFAVYSCQEYNNWPFTFGQGTKVEIK
B13: 29D5 (antibody, V domains shown)
VH: QVTLKESGPVLVKPTETLTLTCTVSGFSLSNPRMGVSWLRQPPGKALEWFAHIFSTDEKSYSPSLRGRLTVSKDTSKSQVVLTLTNMDPVDTATYYCARDSSNYEGYFDYWGQGTLVTVSS
VL: KIVMTQSPATLSVSPGERATLSCRANQIVSSNLAWYQQKPGQAPRLLVFGTSTRATGIPIRFSGSGSGTEFTLTVSSLQSEDFAVYVCQQYNDWPFTFGPGTKVDIK
B14: 20E12 (antibody, V domains shown)
VH: EVNLVESGGGLVKPGGSLRLSCEASGFTFSYAWMSWVRQAPGKGLEWVGRIKSIADGGATDYAAPVRNRFTISRDDSRNTLYLEMHSLKTEDTAVYYCTTIPGNDAFDMWGQGTMVTVSS
VL: DIVLTQSPLSLSVTPGEPASISCRSSQSLLYSNGKNYLDWFLHKPGQSPQLLIYLGSNRASGVPDRFSGSGSGIDFILKISRVEAEDVGVYYCMQAQQTPITFGQGTRLEIK
B15: 32G8 (antibody, V domains shown)
VH: B14 VH with A55T, A59V, T60I, F70C, A106D, T114R
VL: B14 VL
B16: 34E7 (antibody, V domains shown)
VH: B14 VH with A55N, A64S, T80M, M115L
VL: B14 VL with S26T, Y54F, N58I
B17: 30D8 (antibody, V domains shown)
VH: EVQLVESGGGLVKPGGSLRLSCEASGFTFSDAWMSWVRQAPGKGLEWVGRIKSKTDGGTTDYVVPLNGRFIISRDDSRNTLYLQLNNLKTEDTAVYYCTTVPGSYGYWGQGTLVTVSS
VL: DIVMTQSPLSLPVTPGEPASISCRSSQSLLHNKRNNYLDWFLQKPGQSPQLLIYLASNRASGVPDRFSGGGSGTDFTLKISRVEAEDVGVYYCMQAQQTPITFGQGTRLEIK
B18: 11B11 (antibody, V domains shown)
VH: QVTLKESGPVLVKPTETLTLTCTVSGFSLSNAKMGVSWIRQPPGKALEWLAHIFSTDEKSIRRSLRSRLTMSKDTSKSQVVLTMTNMDPVDTATYYCVRDSSNYEGYFDYWGQGTLVTVSS
VL: B5 VL with V3L, G28S, S31T, S43A, Y49F, V58I, D105E
B19: 12B2 (antibody, V domains shown)
VH: B12 VH with I15T, C25S, F64S, A98V, D103N, E105G
VL: EVVMTQSPATLSVSPGERATLSCRASQSVINNLAWYQQKPGQAPRLLIYGTSTRATDIPARFSGSGSGTEFTLTISSLQSEDFAVYYCQDYNNWPFTFGPGTKVDIK
B20: 21E11 (antibody, V domains shown)
VH: QVTLKESGPVLVKPTETLTLTCTVSGFSLSNVRMGVSWIRQPPGKALEWFAHIFSSDEKSIRRSLRSRLTLSKDTSKSQVVLTMTNMDPVDTATYYCARDSSNYEGYFDFWGQGTLVTVSSN
VL: B4 VL with E1D, E3V, N28S, I29V, Q39P, S40P, A43S, S49Y, T60A, Q79E

The target of one assay is wild-type EGFR expressed on cells (human), P00533. The assay can be described thus: flow cytometry, A431 cells. The note with it: remark: other sources report otherwise. In general terms: A flow cytometer gives signals particle by particle.
For the molecule B1, the % positive is 0.3% and the MFI turned out to be 538.
For the molecule B2, the MFI was 578.
B3 gave a % positive of 1.1% and an MFI of 603.
For B4, the % positive was found to be 0.8% and the MFI came out at 599.
For B5 the same measures were 0.8% and 569.
For B6 the same measures were 0.8% and 580.
On to B7, for which the MFI is 560.
Still for that read-out and setting: to B8 belongs 531; to B9, 558; to B10, 391.
For the molecule B11, the % positive came to 1.7% and the MFI is 276.
For B12, the % positive was found to be 1.1% and the MFI was 582.
For the molecule B13, the % positive worked out at 0.4% and the MFI is 531.
Molecule B14 displayed a % positive of 2.6% and an MFI of 302.
Take B15: the MFI is 271.
Molecule B16 came in with a % positive of 1.1% and an MFI of 294.
In turn, B17 registered a % positive of 1.3% and an MFI of 269.
In turn, B18 registered an MFI of 589.
The molecule B19 came in with a % positive of 0.8% and an MFI of 571.
B20 gave an MFI of 555.

The next assay has the same target. As to the kind of experiment: flow cytometry, F98-EGFRwt cells. Particulars: remark: other sources report otherwise.
In the case of B1, the % positive amounted to 1.6% and the MFI came out at 185.
In turn, B2 yielded a % positive of 1.6% and an MFI of 168.
Regarding B3, the % positive was determined as 1.3% and the MFI worked out at 184.
The molecule B4 had a % positive of 1.3% and an MFI of 185.
Regarding B5, the % positive turned out to be 1.9% and the MFI is 188.
Turning to B6, the % positive came to 1.3% and the MFI amounted to 185.
As to B7, the % positive came to 1.6% and the MFI was determined as 187.
On to B8, for which the MFI worked out at 185.
The molecule B9 gave a % positive of 1.8% and an MFI of 189.
Molecule B10 gave a % positive of 12.6% and an MFI of 1070.
For the molecule B11, the % positive came out at 2.3% and the MFI stood at 298.
In turn, B12 had a % positive of 1.6% and an MFI of 187.
For the molecule B13, the % positive is 1.3% and the MFI was determined as 185.
Taken in the same sequence, the figures for B14 were 3.4% and 348.
As for B15, the % positive worked out at 1.6% and the MFI was 301.
In turn, B16 registered an MFI of 371.
B17: the % positive turned out to be 1.7% and the MFI came out at 280.
For the molecule B18, the % positive was found to be 1.7% and the MFI was 187.
B19 displayed a % positive of 1.5% and an MFI of 185.
Turning to B20, the % positive stood at 1.3% and the MFI worked out at 184.
